From patent publication US20040002124A1 (MUNIN, published 2004)
Where no end group is shown, it is not given here.

Target: T1, αVβ3 integrin purified from HUVE cell lysates (human, UniProt P06756 31-1048; P05106 27-788)
T1 construct: mature; Detergent-solubilised native heterodimer, coated on plates; also called vitronectin receptor; immobilized integrin
Assay: affinity chromatography of HUVE cell lysate on RGDSPK Sepharose
Protocol: αVβ₃ integrin purification from HUVE cell lysates was done as described in Pytela et al., Meth. Enzynmol., 144:475-489 (1987). Briefly, 10⁸ cells were lysed in 1 ml of PBS containing 1 mM CaCl₂, 1 mM MgCl₂, 0.5 mM PMSF and 100 mM octylglucoside. […] The purity of the integrin was determined by SDS-PAGE under non-reducing conditions, followed by silver staining.

T1 sequence (P06756 31-1048, chain 1 of 2): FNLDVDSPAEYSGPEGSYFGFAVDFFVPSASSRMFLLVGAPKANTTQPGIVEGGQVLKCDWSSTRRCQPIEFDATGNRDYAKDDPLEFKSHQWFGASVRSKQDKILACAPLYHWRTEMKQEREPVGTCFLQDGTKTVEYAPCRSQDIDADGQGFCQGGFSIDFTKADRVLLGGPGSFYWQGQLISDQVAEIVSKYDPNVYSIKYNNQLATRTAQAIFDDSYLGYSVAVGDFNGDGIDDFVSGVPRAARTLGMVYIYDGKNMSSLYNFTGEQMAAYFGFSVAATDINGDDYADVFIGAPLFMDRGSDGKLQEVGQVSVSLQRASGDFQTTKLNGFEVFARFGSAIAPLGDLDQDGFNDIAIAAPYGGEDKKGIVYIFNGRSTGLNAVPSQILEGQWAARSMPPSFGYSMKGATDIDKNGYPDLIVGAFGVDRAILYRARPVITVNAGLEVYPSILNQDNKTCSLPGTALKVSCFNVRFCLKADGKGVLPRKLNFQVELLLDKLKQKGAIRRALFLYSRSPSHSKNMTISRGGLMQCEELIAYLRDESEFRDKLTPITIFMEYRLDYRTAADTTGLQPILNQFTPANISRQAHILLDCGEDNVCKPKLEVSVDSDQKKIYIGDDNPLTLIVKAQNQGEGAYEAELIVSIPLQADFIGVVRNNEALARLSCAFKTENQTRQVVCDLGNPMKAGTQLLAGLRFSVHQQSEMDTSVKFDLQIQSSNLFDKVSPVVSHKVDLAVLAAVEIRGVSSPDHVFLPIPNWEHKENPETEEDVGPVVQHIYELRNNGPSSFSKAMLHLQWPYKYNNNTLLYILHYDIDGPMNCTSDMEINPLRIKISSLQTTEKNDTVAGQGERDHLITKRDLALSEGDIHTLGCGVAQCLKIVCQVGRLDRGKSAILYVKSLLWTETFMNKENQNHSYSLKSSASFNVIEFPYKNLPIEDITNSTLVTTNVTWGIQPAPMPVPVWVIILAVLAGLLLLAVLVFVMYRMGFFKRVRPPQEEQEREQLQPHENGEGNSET
T1 sequence (P05106 27-788, chain 2 of 2): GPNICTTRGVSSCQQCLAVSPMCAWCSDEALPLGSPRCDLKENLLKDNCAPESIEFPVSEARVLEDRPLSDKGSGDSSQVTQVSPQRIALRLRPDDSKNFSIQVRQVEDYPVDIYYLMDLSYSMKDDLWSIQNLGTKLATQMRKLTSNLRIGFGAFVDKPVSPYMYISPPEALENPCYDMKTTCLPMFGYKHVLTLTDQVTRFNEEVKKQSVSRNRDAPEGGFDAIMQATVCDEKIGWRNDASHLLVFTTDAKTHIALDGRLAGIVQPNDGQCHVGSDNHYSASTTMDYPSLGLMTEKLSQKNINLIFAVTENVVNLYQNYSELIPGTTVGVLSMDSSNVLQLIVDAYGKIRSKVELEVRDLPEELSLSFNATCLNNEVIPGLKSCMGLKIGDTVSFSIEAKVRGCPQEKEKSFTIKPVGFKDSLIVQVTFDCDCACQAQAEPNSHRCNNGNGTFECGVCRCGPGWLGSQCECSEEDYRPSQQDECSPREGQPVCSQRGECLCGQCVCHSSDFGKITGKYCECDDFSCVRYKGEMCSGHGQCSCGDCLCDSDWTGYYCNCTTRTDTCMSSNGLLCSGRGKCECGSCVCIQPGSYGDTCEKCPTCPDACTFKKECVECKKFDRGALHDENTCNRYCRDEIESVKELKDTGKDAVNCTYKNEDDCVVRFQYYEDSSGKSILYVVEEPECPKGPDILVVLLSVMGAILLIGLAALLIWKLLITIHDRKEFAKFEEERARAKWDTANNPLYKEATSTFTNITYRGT

- binding result: binds
B1: RGDSPK Sepharose (peptide)
peptide: RGDSPK
modifications: also: coupled to cyanogen bromide activated Sepharose CL 4B
notes: also called RGDSPK peptide
